# Experiment: label from the status in PepcDB records
row,Sequence,protein production
1,MKILRRTITGAATGLLLALPGVALAGTTLRVASEEAFATPAKVAAQSALEHVEKTLPDATGGEVSVQLYPGGALGSEKELIKALADGTVDAMVLSPGNAAGIVPEVQLFSASYLFESYDHARAVIKDDAFFEALAQIIAEKQAGFQLAGIGLTGTRNYYSRSRAVETIEDLSGVKMRVMSSPTEFKVWSELGTLPTTIPAPEIYTSLQTGVVDAAESSLPAISGSKYYEVAPYISLTQHQFNLHLFLVSDIAMSRLSEGQQAAVLQAFREAGHIEIDEAIRLSDEVLAFLRERPGVTVTEVDTAPFAQKLRAVQDEVATGLGVEPLLEIIRSHGTQG,failed
2,MKILSFAVLAAICLPMMPITTFAAETSATNALSQSQLFSRGDEYANVKISPTGKYLSAITSVEGKNVLLVLDAQTKKLLNAIRFPSNAQVGTYEWASSERIVLAKEYLKGWSDVPQYYGELMAVNADGSRPAYLFGFNSGEQQTGSNIKKNTAIKATAFILDPLPDDERYMLVNAIPWNNESSLNLELKQDVYRVDLFSGVRKRITGSPIGQARFMTDHEGEVRFVTGEDGQNVTKVFYRKDGDWVNTDKLNLGLSDFTPISFADNKNTIYAAGRVGTETLGVYRINLETGEKTEIIQDEVVDPSNFWINGTNKQLYAVEFENGYPSYAFVDNNDNHAKLLKDLIAALPGHQVQIVSETRNGEQLVVIAFNDRNPGDYYLFDTKKLKLEYLAAARKWLDPEQMAEVKPISFTNRDGQKIHGYLTLPYGKEAKNLPLVVNPHGGPHGIRDWWGFDPQNQLLAQNGMAVLQVNFRGSGGYGERFEQAGYQKWGSDIQHDIIDATQYVIGQGFVDKERICIAGGSFGGYSALQSAVLAPDMFKCAVGFAGVYDLELMFDEGDVARTRSGTSYLKDVLGQDKATLKAMSPSENVAKLKANLLLVHGGEDERAPIEQLESLEKALKNHNYPYQKLVMDNEGHGFYNDTHRAKYYDQMLSFLKTNLKL,failed
3,MKINKLLFGMLLLLLASCGSSRKVEKQSEQVAVQEINLTPEQQRKYDYFFLEASRLKVKKEYTAAFDLLQHCLAINPTGSAALYEIAQYYLFLKQAPQGQEALEKAVAYAPDNYWYSQALAGLYQQQDQKEKAIGILEKMATRFPAKQDPLFNLLDLYNQKEDYGKVISTLNRIEEKTGKNEQITMEKFRIYLQMKDDKKAFEEIESLVNEYPMDYRYQVILGDVYMQNGKKQEAYDTYKKVLAAEPDNPMALFSLASYYEQTGQKELFEQQMDTLLLNRKVPSDTKVNVMRQFIVQSEQEGKDSTQVIGLFDRMMQMDMDDVQIPMLYAQYLLSKGMEAQSIPVLEQVVQIDPTNKAARMTLLGSAIRKNDYEQVIKICEPGIEATPDALEFYFYLVIAYNQAEHWDDVLEVSRKALEHVTPESDKQMVSDFYTIIGDVYHTKKLMKEAYAAYDSALVYNPSNIGALNNYAYYLSVERRDLDKAEEMSYKTVKAAPNNATYLDTYAWILFEKGNYAEARIYIDDAIKNTKPEEESSVVFEHCGDIYFMTGDVEGALKYWKKALELGTESKTLKQKIEKKKYIAE,failed
4,MKINMHILGLLVVVGLFSLQSCDDESYDIEGSNQNYVYINVNRWTSTEYPQNTFVYEVLRTPIGSSLESGPEIVKVGVRSTKVASKDITVTLDIDNCASIGEFSSFPDGVKVTLDKKELVIPAGSMLSSDSVTIEIEDGKWSEFVNTSYLLPLKVTSVSNAALSETHSSAYLAVSTSFTNCVPGATSVEGTLISDRSAWTATNNGVDVGTTLFDGNTRTYPSQDASSTVIVNLNGVYQNITGIRLQYYSRNYSLSSAAVYTSETGGEDYEYQGNVTFSRATPQYIRFYGAVSARYVKLELLPYSSGYGIVLSEFDMYQNE,failed
5,MKIQDYTKQMVDEKSFIDMAYTLLNDKGETMNLYDIIDEFRALGDYEYEEIENRVVQFYTDLNTDGRFLNVGENLWGLRDWYSVDDIEEKIAPTIQKFDILDADDEEDQNLKLLGEDEMDDDDDIPAQTDDQEELNDPEDEQVEEEINHSDIVIEEDEDELDEDEEVFEDEEDFND,not failed
6,MKIRVADEKELPMILQFLTEVKAYMDVVGITQWTKDYPSQGDIQEDITKKRLYLLVHEEMIFSMATFCMEQEQDFVWLKRFATSPNYIAKGYGSLLFHELEKRAVWEGRRKMYAQTNHTNHRMIRFFESKGFTKIHESLQMNRLDFGSFYLYVKELENQSIV,not failed
7,MKISFSESQKLFAYFSGLIAALSLFIYYVSAQQSEGALILCITFGVIAAGIWFGPIYALAVTLIVLFVLGTLMMFFQTGQTSLFPAEEGLRMLVVWGIALLLFSFISGRIHDITAELRRSMTRLQSEIKSYVAVDRVTGFDNKQRMKLELSEEIKRAERYGNSFVFLLLHMHYFKEFKSLYGEKETDRLFQYVGQQIRTSVRETDKKFRPSDERIGIVLTHTPAEHMPAVLTKLKKQLDTYQLENGKYVSLTFHVCYLPYRNDIQTADQFLEELENEMMMNEL,failed
8,MKITFISGQEVSLGTSFLLFSKKIVMNELNQPLLAIIKNVAKTKNLSIEEVVFCLKTALEQAYKKHLNFVNVEVNINFDKGIINVEQLFNVVSDENEDYDDFLEIPLQAANKINSSLQLGDVLRKPIPLKNISSDLINKMIAIFNQKISETNFKAVMSEFSSEVGEVIEAKVEDIDTNKEGGLKGYIINLETTKGYISKRELSKGERLEIGKKYLFVIKEIQRQASLWPITLSRSDTRLLQFLLTSNTPEIENGTIVIKKIERSPGVKSKIAVISNDPAVDPVAAILGPKGEKIRGISEEFNGEIIDIVFWNEDKLKFLINAILPAEVIGYNILQDDERDTSIEVVVPANQIANVFGFKGVNIRLISNLTGWNSVDVYSEKDASEANIKFTRLSFEPEGLFGIKKRREKIISNDATDKVFYTSKDNVIDDEIIVDLAKDLMVDNKQKQPEQVAKQVVEKSQLEKQVTPKEKEKVQPKAKVHSNSHSKKPAKPNQIFSITVDASDKNLKKDQVDNNQTNPQTKQTFDSFDDL,failed
9,MKITLEHWFYNWLFEYRIKDLKPKSFERYESIYRNYIKDTDLGNVKLKYLRVSHIQKYYNRLLDSNKSIPTIRQINTKLKTCLSEAEKQGLIQRNYCTMVNIPLEHHHHHH,not failed
10,MKIVILGAGRVGSTVAESLASESNDITVVDLVRNRLSLLQERLDLRTVVGSASHPDIMIQAGMEDADMILALTGSDETNLVACKLAASMFNTPTRIARIRTVDYLDHPDIFSRENFCVDFAICPERILTKYIEKLIEFPGALQVLDFASGKVSLVAVKAIRGGPLIGRQLKELRRHVPNLDTRVAAIFRHNHPIIPEGSTIVEEGDEVFFIASSSDIRAVMGELRRMDKSVRRVMIAGGGRIGRRLAEVLQQSHQVRIIERDIKVCESLTQNLHNTLILHGNVTDEELLESENISEMDIFCALTDDEENNIMAALMAKRMGARKVIALINRSMYVDLMQDSGIDIAISPAQVTIGSLLAYVRQGDVAVVHSLRRGAAEALELVAHGDTRSSRVVGRKIEEIKLPRSTTIGAIVRGLPPGDVYRNLSEQEEDSILAQWKQAQVIIAHHDTVIEQNDHVILFVVNKKMVRQVEKLFQVNVGFL,failed
11,MKIVSKSSPLPLHYQLKMILQEMIENEELLPGDTIPTERELCEIQKISRMTVNKAILSLVSEGILYREQGKGTFVAKKKEKQQLTKLKSFTEEMREKGLNISTKILSFEIKTATKHISTLLELPHKKMKVIEIIRLRLTDNDPSAIETVVLPLYLFSDMTKEVIDGKSLYNTFREKYGYEPTKAKQTIEPIMLTDYEAKFLNQVGNSLALLFRRLTYRKDGVPIEYTKSIYRSEKYKYEVILT,failed
12,MKIYASDEQYKQMNEELDERVESLVSELTLDEKIRLMCQYQEAVPRLGIGKYKHGTEGAHGVAWLGKATVFPQNIGLGCTWNEELMKKIGDVIAEEARVYYQENPEQNGLTIWAPTVDMERDPRWGRTEEAYGEDPYLTGKLTTELIKGMQGDHPFYLKTAATLKHFLANNNEEARTECSVSIDPRNLREYYLKAFEPQVKEGHVQCVMTAYNAVNGTLCNMNPDVNAILKEEWGLQGFVVSDACDVVGSVDDHQFVESYAEAVALSIKNGIDNVTDDEKIIHRAIGDALEQGLLSEEDLDQALKRVFRVRIRLGEFDQENKNPYATVAKEKLCA,failed
13,MKIYFEAYGCTLNQGETALYVNKLLNEGNTLVSNPKEADLSIIGTCAVIKKTEDHMMARIQNLSRFGKVEVIGCLAPVKGKTMVEDNVSVIEKDRFRSFQEVIDEVSPVNAEIVSGIPINQGCTGKCNFCVSHIARGKLVSRKPEKIAGQIKILLQRGIKEIKITSLDTAAYGKDIGLRLPHLIRTITEIGDDFRLRVGMMEPKNTLEIVDDLISAYRSEKVFKFLHLPVQSGDDYVLEVMNREYTVSDFIRITGKFREAFPDSTLSTDLIIGYYAENDDSFEKTVQLIEKIRPEIINVTKFSPRELTADFEKRPKPTNILKEQDRMIADMHKEILQEKFSNLIGKTEFVLITENGKGRSMIGRDHAYRPIVIMDKTRKFEFHQVEITGFENTSLIGRIIDLEHHHHHH,failed
14,MKKAMLLIKNGKILTMTGVNYDSGSVLIDNGKIIKVGENIDVDESCEIIDADGFWVMPGIIEAHCHVGIQEEKRGFEGNDCNEMTNPVTPYLRALDGINPMDSAFYTALTAGITGIMVGPGSANVVGGQWMFLKTYGRAIDKMVVLQPSAMKIAFGENPKANYDKKNMMPSTRIAIAAMLREELFEAQQYYEKRKNAEKSGDSFNKEFRKECWVPVFDKKIPLKAHVHRADDILTAIRIAKEFNLNLTLDHCTEGHLVAKEIKESGFPAIVGPTLTSRNKIETQYADFKTAGILHNEGVKVAITTDHPVTRIQDLLICAGLAAKEGLGIEEGLKAITINPAEICNVANRVGSIEVNKDADIAIFDGNPMETFTKTMYTIINGEIVYSLKDKNY,failed
15,MKKDLISVVMSAYNSEKFISDSISSILDQTYENWELIIINDASSDNTLKIVNQFSEKDPRIKVIDNENNLGLTISLNIGINNSKGEFIARLDSDDFAEPSRLEKELDHLHAYPEAGLVGSGAHLINSSGNKIGSMNVMSQPYFVNRFLINLNPFIHSSIMVRKKALDNVGSYREKFRYSQDYDLILRLSDKYKLSNIALPLIRWRVSDSSVTMQHHTLQRIYADIAREFAIERRNSGHDSYESTEFDTLIHEMRIRNQGRYLCDHGVYDLLFNKKYKEGCSELIKGISKGGFPYNSFYRGITQVISKVNIQLEHHHHHH,failed
16,MKKEKKDYYEILGVPRDATQEEIKRAYKRLVKEWHPDRHPENRKEAEQRFKEIQEAYEVLSDPQKRAMYDRFGYVGEQPTYQETESGGFFDDIFRDFENIFNRDIFDVFFGERPHQEERREYARRGEDIRYEIEVTLSDLINGAEIPVEYERYETCPRCGGTGVEPNAGYMDCPSCGGTGRIREERRSFFGYFVSERTCERCGGTGKIPREYCHECGGSGRVLRKVRRTVKIPPNVEDGTHLRITGGGNAGYYGGPYGDLIIIVRVKPDPRFKKSGSDLVYDVTIDYLQAILGTTVEVPLPEGGTTMLKIPPGTQPETVFRLKGKGLPNRYGRRGDLIVNVHVEIPKSLSREERKVLEELAKKRGVTIG,failed
17,MKKFKFTLFSLLVIIFSGLLIQRFSGYFYTTPVGIVKSVKIIDSEQLLTVKLVNNTKKTVVVKVKFNGNESTNPVFNKNNQILLDNSTKKWEFISLKRDGYTFILVVSFVSLVLGIAGKKGFFSLVGILFNIIFLFFLLWINQRNRSINLLLLISIYTIIAIIISTGTLYGLKKIDLRKVLATIFSVFLSYFITTITMKLLNDQGLRYEEMQFLTRPYRTVFLASLMLGGIGAALDNVVVIISSLDQLVRHTPEINTKELIESGKNIASDTTTSMINVLLFAYLSSATPFFIFYLANGWDFVETFKMHLSLEIMRILCGGLAILFTIPSSFLFFLLFKKIKKEGENR,failed
18,MKKFPELRKYTNPVWVRLVILCQKKLKVCFIMFIVMSISTSAEIYYEEAEEFLSKGDLVQACEKYYKAAEEAIKLLVIENNLKEIINEAEEHGWDSKTLNDAVTELSYKLGDNIIDMWASAVTLFTARKFMDKDLIENYKKDIKTLIEEAKQRFSIKVLKLEHHHHHH,failed
19,MKKFSAIFGLLSVIFVIMAISQVSGLSGAITPPKIDIMVNASNGLPQDINSIIYVKNPNSFPVKVEMVTTGDLNNSKKVEVKIMKNNFTLKPGETVGVNITFTVKEKDNYEGDILTKISPVDYGDDKKGVNLKASVVLPTKVAIMVVGNEIHTKELVITAVLIISILGLGAMLIRRHL,failed

# Source: a protein production outcome set (Wang et al. 2014)
